In patent publication US20220017611A1:
Positions count from the first letter of the chain named.

B1: mCherry-VHH Mut12 (VHH, not shown: large carriers)
VHH: AEVQLQASGGVFVQSGGSLRLCCAASGATSTFDGMGWFRQAPGKEREFVSAISYEQGSYTYYADSVKGRFTISRDNSKNMVYLQMNSLRAEDTATYYCAPAYEGDLYAFDSYGEQGTQVTVSS
B2: mCherry-VHH E4-1 (VHH, not shown: large carriers)
VHH: EVQLQASGGGFVQPGGSLRLSCAASGATSTFDGMGWFRQAPGKEREFVSAISYEQGSYTYYADSVKGRFTISRDNSKNTVYLQMNSLRAEDTATYYCAPAYEGDLYAFDSYWGQGTQVTVSS
B3: mCherry-VHH Z70 (VHH, not shown: large carriers)
VHH: B2 VHH with G10V, P14S, T79M, W112G
B4: mCherry-VHH Mut3 (VHH, not shown: large carriers)
VHH: B2 VHH with G10V, P14S, R45K, T79M, W112G
B5: mCherry-VHH Mut20 (VHH, not shown: large carriers)
VHH: B2 VHH with G10V, P14S, R45K, T79M, W112G, G113E
B6: mCherry-VHH Mut5 (VHH, not shown: large carriers)
VHH: B2 VHH with G10V, P14S, T79M, T94S, W112G
B7: mCherry-VHH Mut1 (VHH, not shown: large carriers)
VHH: B2 VHH with G10V, P14S, T79M, W112G, G113E
B8: mCherry-VHH Mut14 (VHH, not shown: large carriers)
VHH: B2 VHH with G10V, P14S, T30I, E54G, T79M, W112G, G113E

molecular target: Tau RD (MTBD) P301S fused to CFP or YFP, in HEK293 Tau RD P301S FRET Biosensor cells (UniProt P10636); experiment: cell-based or functional assay
Sequence (P10636 561-689 P618S): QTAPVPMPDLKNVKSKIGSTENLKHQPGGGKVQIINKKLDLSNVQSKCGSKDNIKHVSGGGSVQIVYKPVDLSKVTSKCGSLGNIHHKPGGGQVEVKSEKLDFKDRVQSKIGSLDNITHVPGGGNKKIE

| Binder | mCherry-gated FRET positive cells after MTBD seeds | seeding inhibition | seeding inhibition against mCherry-VHH F8-2 |
| --- | --- | --- | --- |
| B1 | 8.5% | 48% | – |
| B2 | 15.2% | – | 7.8% |
| B3 | 9.9% | – | 40% |
| B4 | 8.2% | 50% | – |
| B5 | 11.2% | 32% | – |
| B6 | 12.1% | 27% | – |
| B7 | 8.2% | 50% | – |
| B8 | 12.7% | 23% | – |
